Results published in publication PMC5425128, “Functional human GRIN2B promoter polymorphism and variation of mental processing speed in older adults”.

Molecular target: T1, Elk-1 (human, UniProt P19419 1-428)
T1 sequence: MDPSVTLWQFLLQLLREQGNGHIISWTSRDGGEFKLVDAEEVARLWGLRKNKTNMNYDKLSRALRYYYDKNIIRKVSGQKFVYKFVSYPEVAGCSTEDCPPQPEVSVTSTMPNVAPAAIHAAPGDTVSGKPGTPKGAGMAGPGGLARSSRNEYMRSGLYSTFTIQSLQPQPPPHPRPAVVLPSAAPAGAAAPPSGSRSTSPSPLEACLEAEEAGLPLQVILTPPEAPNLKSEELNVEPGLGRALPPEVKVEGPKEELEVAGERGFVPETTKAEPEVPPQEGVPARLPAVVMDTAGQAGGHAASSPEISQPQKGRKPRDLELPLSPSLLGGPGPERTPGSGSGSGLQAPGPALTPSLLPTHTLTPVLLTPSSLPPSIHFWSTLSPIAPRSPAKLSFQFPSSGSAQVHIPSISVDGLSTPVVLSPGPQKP
Test: EMSA; 1 ug Elk-1, 10 mM MgCl2, no poly(dI-dC); 50 mM HEPES pH 7.5, 10 mM MgCl2, 5% glycerol, 1 mM DTT, 0.3% BSA, 1 mM EDTA; 1 h on ice; 6% gel (HEPES buffer pH 6.3), no poly(dI-dC)
Settings: protein: commercial; blunt

B1: GRIN2B A allele (rs3764030 A) (dsDNA)
DNA 1: CATCTCCGGGGAACACGCGAA
DNA 2: TTCGCGTGTTCCCCGGAGATG
  binding result: binds
